Test results taken from the supplement of paper PMC9170038.

Test system: MS2 coat protein
Experiment: apparent KD of MS2 coat protein; designed switch direction (-1 OFF switch, 1 ON switch): -1; higher = weaker reporter binding
Summary of the method: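 On Illumina chips, designed RNA switches with common flanks were made by stalled E. coli RNA polymerase. Titrations with SNAP-549-labelled MS2 coat protein, doubling from 0.7 or 1.5 nM to 3 µM, were done with no input, with 200 uM small-molecule ligand, or with an oligonucleotide input. Apparent KD is the median per design over clusters, from curve fits of normalised cluster fluorescence.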

[1] = input ligand: microRNA oligo, concentration not stated
[2] = Eterna round: R95, input ligand: microRNA oligo, concentration not stated
[3] = Eterna round: R95, input ligand: FMN 200 uM
[4] = Eterna round: R95, input ligand: none

CCAUCUCUAGUAGGAUAUGUCGGAUAUGUUGUUGAGGUUCACCCAACGACGUCAAUGACAGAAGGACAGAAGGACUCUCGAUGC [pwkr exNG2 2xFMN 1xF5.6] (Eterna round: R96, puzzle: Exclusion NG 2)
apparent KD of MS2 coat protein (input ligand: FMN 200 uM): 114 nM
apparent KD of MS2 coat protein [1]: 463 nM
apparent KD of MS2 coat protein (input ligand: none): 183 nM

CUUCGUAUAGAGGAUAUAGGAUACCUCGGUGUCCUAGAAGGCUGUACAUGAGGAUCACCCAUGUACUUCAGAUC [Exclusion 6 - B - 14:d] (puzzle: Exclusion 6)
apparent KD of MS2 coat protein [2]: 12.6 nM

UGAGUCUAAGGAUAUCUGAGGCGCGACAUGAGGAUCACCCAUGUCUCCAAGGAGAGAGCUGGAGAAGGUAGCUGGA [Eternabot (L2) Solution 81] (Eterna round: R97, puzzle: Exclusion 5)
apparent KD of MS2 coat protein (input ligand: FMN 200 uM): 17.6 nM
apparent KD of MS2 coat protein (input ligand: none): 18.6 nM

AAGGGCUGAGGAUAUGCGCGGGCAAGAUCCUCAAUCCCAAAACAUGAGGAUCACCCAUGUAGAAGGCAGAAAUA [Atedonesle] (puzzle: Exclusion 2)
apparent KD of MS2 coat protein [2]: 28.3 nM

CUUAACUCAGGAUAUGCGGCGACAAACAUGAGGAUCACCCAUGUAAAUUGGUGAACCUGAGCAGAAGGGAGUACAA [EX5 B.2] (Eterna round: R97, puzzle: Exclusion 5)
apparent KD of MS2 coat protein (input ligand: FMN 200 uM): 66.4 nM
apparent KD of MS2 coat protein (input ligand: none): 22.6 nM

UAAUGCAAGUAAAGAUCUUACAUGAGGAUCACCCAUGUGCUCGUCUUAUAAAGUACUAUCACGAAAGUGAUAGUACA [Mat - Sensor v3 - turn-off var 1 - Eli Mod - D89] (puzzle: Sensor v3, turn-off variant 1)
apparent KD of MS2 coat protein [3]: 18.2 nM
apparent KD of MS2 coat protein [2]: 119 nM
apparent KD of MS2 coat protein [4]: 18 nM

GUAAACGCAGAGGAUAUUUCAGAUCAAAGCUGCAAAGAAGGCUGCACAUGAGGAUCACCCAUGUGGUCUUCAAG [Mat - Exclusion 6 - JL Mod - D10] (Eterna round: R97, puzzle: Exclusion 6)
apparent KD of MS2 coat protein (input ligand: FMN 200 uM): 297 nM
apparent KD of MS2 coat protein (input ligand: none): 24.7 nM

AUUCGAAAGAUCCACAUGGACAUGAGGAUCACCCAUGUGCAAGCCUUUUUCUCGUCACUAUCGUCAAAAGACGAUAG [Omei Mir Offv1 A7] (Eterna round: R97, puzzle: Sensor, turn-off variant 1)
apparent KD of MS2 coat protein (input ligand: FMN 200 uM): 744 nM
apparent KD of MS2 coat protein (input ligand: none): 848 nM

UUAAAUAAUGUAGGAUAUGCAAGGCGAACCUAAGCAGAAGGACAUGAGGAUCACCCAUGUAAUGCGGUCUGCGUACAGAUCGCA [JL ENG1 1.01] (Eterna round: R96, puzzle: Exclusion NG 1)
apparent KD of MS2 coat protein (input ligand: FMN 200 uM): 59.4 nM
apparent KD of MS2 coat protein [1]: 23.2 nM
apparent KD of MS2 coat protein (input ligand: none): 24.2 nM

AAGAAGCAAGGAUAUACAACGGGCCACAGAGCCGAAGGGCAACAUGAGGAUCACCCAUGUAGAAGGUGCGUAAC [Lecebeqube] (puzzle: Exclusion 2)
apparent KD of MS2 coat protein [3]: 149 nM
apparent KD of MS2 coat protein [2]: 30.3 nM
apparent KD of MS2 coat protein [4]: 28.2 nM

ACAUGAGGAUCACCCAUGUGACCACAAUGGCUGAUGUAACAACAGGAUAUGUGUGAAUAUCUAACACAGAAGGGUUUUGACUGG [Deportation 58 - Jieux - Exclusion NG 3] (Eterna round: R96, puzzle: Exclusion NG 3)
apparent KD of MS2 coat protein (input ligand: FMN 200 uM): 76.9 nM
apparent KD of MS2 coat protein [1]: 59.3 nM
apparent KD of MS2 coat protein (input ligand: none): 75.9 nM

CUAACAUGCUGGUGAUCAUACAUGAGGAUCACCCAUGUAACAAGCUUUUUGUUCGUCUUAUAAGAUUACUAGUAUGU [Stov1/10-B3] (Eterna round: R97, puzzle: Sensor, turn-off variant 1)
apparent KD of MS2 coat protein (input ligand: FMN 200 uM): 38.8 nM
apparent KD of MS2 coat protein (input ligand: none): 52.3 nM

AGGGAGUCAGGAUAUUAUUUUUAGCGGGAUAACGCUGAGGGUGAGAAGGGACAUGAGGAUCACCCAUGUUUUGA [JR_Ex4_Sub075] (Eterna round: R97, puzzle: Exclusion 4)
apparent KD of MS2 coat protein (input ligand: FMN 200 uM): 167 nM
apparent KD of MS2 coat protein (input ligand: none): 183 nM

AGAUGCUUAAGUCGACAUGAGGAUCACCCAUGUACAGUUAACGAGGAUAUCCGAGAUAAAUAAUAGGAGAAGGCGUGAUCAUGA [Ex NG3 #2] (Eterna round: R96, puzzle: Exclusion NG 3)
apparent KD of MS2 coat protein (input ligand: FMN 200 uM): 56.6 nM
apparent KD of MS2 coat protein [1]: 363 nM
apparent KD of MS2 coat protein (input ligand: none): 277 nM

UUGUUUUCCGCAGGAUAUGCUCCUCUAUUACUAGCAGAAGGGCGUUGAACAUGAGGAUCACCCAUGUAUGUAAUUGCUUAUUGC [JR_ExcNG1_Sub074] (Eterna round: R96, puzzle: Exclusion NG 1)
apparent KD of MS2 coat protein (input ligand: FMN 200 uM): 19.3 nM
apparent KD of MS2 coat protein [1]: 17.5 nM
apparent KD of MS2 coat protein (input ligand: none): 24.4 nM

CGUGUCUUUCACGUGAGUGGUGGGUGCAACAGGUGGGAAACAUGAGGAUCACCCAUGUCCUCAUUUGCUCGUCUUAU [Grok-var2-02] (puzzle: Sensor v3, turn-off variant 2)
apparent KD of MS2 coat protein [3]: 686 nM
apparent KD of MS2 coat protein [2]: 457 nM
apparent KD of MS2 coat protein [4]: 572 nM

UCAUGUAUGUAGGAUAUCGAUGUCUUCGGACAUCGAGAAGGACGUACAUGAGGAUCACCCAUGUAACUUGCAUG [Exclusion 6 - B - 11:b] (puzzle: Exclusion 6)
apparent KD of MS2 coat protein [2]: 14.8 nM

GGUUGGCGAGGAUAUACAUGAGGAUCACCCAUGUGAGAGAUAAAAGUGAGGAAGAAAAGUAGAAGGCGCUGACG [salish99_ex3_r3_012] (puzzle: Exclusion 3)
apparent KD of MS2 coat protein [3]: 155 nM
apparent KD of MS2 coat protein [2]: 29.5 nM
apparent KD of MS2 coat protein [4]: 69 nM

AAAUUCAGAGGAUAUGCGCAUAGAUAAGACUUUUUUUCUUAACAUGAGGAUCACCCAUGUAGAAGGCUGUAAAA [Ex2 #60] (Eterna round: R97, puzzle: Exclusion 2)
apparent KD of MS2 coat protein (input ligand: FMN 200 uM): 20.5 nM
apparent KD of MS2 coat protein (input ligand: none): 18.4 nM

AAGAAACAUGAGGAUCACCCAUGUGAGGAUAUGGCCCGCCCGGCGUAAGCAAAAUAAAUCAGAAGGCACAAAGG [salish99_ex1_r4_008] (Eterna round: R97, puzzle: Exclusion 1)
apparent KD of MS2 coat protein (input ligand: FMN 200 uM): 39.5 nM
apparent KD of MS2 coat protein (input ligand: none): 47.2 nM

AGUUGGCGAGGAUAUACAUGAGGAUCACCCAUGUGAGAGAAAAAAGUGAGGAAGAAAAGUAGAAGGCGCUGACU [salish99_ex3_r3_039] (puzzle: Exclusion 3)
apparent KD of MS2 coat protein [3]: 313 nM
apparent KD of MS2 coat protein [2]: 46.3 nM
apparent KD of MS2 coat protein [4]: 60.4 nM

AACGAAGCAGGAUAUACAUGAGGAUCACCCAUGUGCUUGCAUGGCGUGGGAAGUCAUAGUAGAAGGGCUACGCC [EX3 #62] (Eterna round: R97, puzzle: Exclusion 3)
apparent KD of MS2 coat protein (input ligand: FMN 200 uM): 53.6 nM
apparent KD of MS2 coat protein (input ligand: none): 22.1 nM

UUAGAAAUGGUAGGAUAUUAGUAGUGUUUUACUCUGAUCCACAUGAGGAUCACCCAUGUGAGUAGUGAGAAGGAUCAUUUUAUG [base off of JR design] (Eterna round: R96, puzzle: Exclusion NG 2)
apparent KD of MS2 coat protein (input ligand: FMN 200 uM): 21.1 nM
apparent KD of MS2 coat protein [1]: 17.8 nM
apparent KD of MS2 coat protein (input ligand: none): 19.3 nM

UAGAUGUGAGGAUAUACAUGAAUGCAGGAUCGUGUGGUGCUACAUGAGGAUCACCCAUGUAGAAGGCACGUCUU [Mod 9 R3 JL-ex2-2.29 - Jieux - Exclusion 2] (Eterna round: R97, puzzle: Exclusion 2)
apparent KD of MS2 coat protein (input ligand: FMN 200 uM): 20 nM
apparent KD of MS2 coat protein (input ligand: none): 13.9 nM

CCUCCACAGUAGGAUAUCAUCAAACUAUUGUGAUGAGAAGGACUGACAUGAGGAUCACCCAUGUUAACGUGAUG [Mod of Brourd 7 - Jieux - Exclusion 6] (Eterna round: R97, puzzle: Exclusion 6)
apparent KD of MS2 coat protein (input ligand: FMN 200 uM): 25.3 nM
apparent KD of MS2 coat protein (input ligand: none): 22.9 nM

GGAAAGUGAGGAUAUGGUAAUUUAAUUAUUAAUUAAUUAAUCCAGAAGGCACAUGAGGAUCACCCAUGUAAAGG [Mat - Exclusion 4 - D92] (puzzle: Exclusion 4)
apparent KD of MS2 coat protein [2]: 30.7 nM

CAGCGAUCAGGAUAUACAUGAGGAUCACCCAUGUGUUCCAGCUAGGAAACUAGCAAAUGUAGAAGGGAUCGCUG [jl-ex3-4.00 salish99 mod] (Eterna round: R97, puzzle: Exclusion 3)
apparent KD of MS2 coat protein (input ligand: FMN 200 uM): 32.2 nM
apparent KD of MS2 coat protein (input ligand: none): 346 nM

GGCACCGUAGGAUAUUGUGGUGCAGACAUGAGGAUCACCCAUGUUGAUCCGGGACUGCAGCGAGAAGGACGGGAAA [Eternabot (Original) Solution 2] (Eterna round: R97, puzzle: Exclusion 5)
apparent KD of MS2 coat protein (input ligand: FMN 200 uM): 284 nM
apparent KD of MS2 coat protein (input ligand: none): 344 nM

AAACUGAGGCAAAGCUUUAGUCGUACAUGAGGAUCACCCAUGUAGGAUAUGGUAGGCAAAGCUUACCAGAAGGACAGAGUGAUC [Mat - Exclusion NG 3 - Mod of JL - D57] (Eterna round: R96, puzzle: Exclusion NG 3)
apparent KD of MS2 coat protein (input ligand: FMN 200 uM): 251 nM
apparent KD of MS2 coat protein [1]: 487 nM
apparent KD of MS2 coat protein (input ligand: none): 344 nM

GACCUACAUGAGGAUCACCCAUGUGAGGAUAUAUUGUUAUUUAUAAUAUUUUUUAGUGGUAGAAGGCGCGUGAU [JR_Exc1_Sub018] (Eterna round: R97, puzzle: Exclusion 1)
apparent KD of MS2 coat protein (input ligand: FMN 200 uM): 17.9 nM
apparent KD of MS2 coat protein (input ligand: none): 20.2 nM

CCCGUGUUAGGAUAUACGGCACACCUGCCAGCAGGUGUAUAGUAGAAGGAACAUGAGGAUCACCCAUGUAUAGC [Rizausma] (puzzle: Exclusion 4)
apparent KD of MS2 coat protein [2]: 34.6 nM

GGCACACAUGAGGAUCACCCAUGUGAGGAUAUGAGGCGAUCGUCGAUAGACGAUAGCCUUAGAAGGCACAUGCC [Mat - Exclusion 1 - Eli Mod - D11] (Eterna round: R97, puzzle: Exclusion 1)
apparent KD of MS2 coat protein (input ligand: FMN 200 uM): 45.2 nM
apparent KD of MS2 coat protein (input ligand: none): 21.2 nM

UUUUAACAUGAGGAUCACCCAUGUGAGGAUAUCAUUUUUUUUUUUUUUUUUUUUUUUUUGAGAAGGCACAUUUU [My solution] (puzzle: Exclusion 1)
apparent KD of MS2 coat protein [3]: 11.9 nM
apparent KD of MS2 coat protein [2]: 37 nM
apparent KD of MS2 coat protein [4]: 14.2 nM

UAUUUUAAAGUAAGGAUAUCGGUCCGAAAGGACUACGAGAAGGUACAUGAGGAUCACCCAUGUGAAAUAAGAAU [Mod of Zala 23 - Jieux - Brourd's Mod of Exclusion 4] (Eterna round: R97, puzzle: Brourd's mod of Exclusion 4)
apparent KD of MS2 coat protein (input ligand: FMN 200 uM): 20.8 nM
apparent KD of MS2 coat protein (input ligand: none): 15 nM
